Source: paper PMC12363175 (2025)

B1: golden hamster ACE2 ectodomain fused with mFc (Fc fusion)
chain: QSIIEEQAKTFLDKFNQEAEDLSYQSALASWNYNTNITEENAQKMNEAAAKWSAFYEEQSKLAKNYSLQEVQNLTIKRQLQALQQSGSSALSADKNKQLNTILNTMSTIYSTGKVCNPKNPQECLLLEPGLDDIMATSTDYNERLWAWEGWRAEVGKQLRPLYEEYVVLKNEMARANNYEDYGDYWRGDYEAEGADGYNYNGNQLIEDVERTFKEIKPLYEQLHAYVRTKLMNTYPSYISPTGCLPAHLLGDMWGRFWTNLYPLTVPFGQKPNIDVTDAMVNQGWNAERIFKEAEKFFVSVGLPYMTQGFWENSMLTDPGDDRKVVCHPTAWDLGKGDFRIKMCTKVTMDNFLTAHHEMGHIQYDMAYATQPFLLRNGANEGFHEAVGEIMSLSAATPEHLKSIGLLPSDFQEDNETEINFLLKQALTIVGTLPFTYMLEKWRWMVFKGDIPKEQWMEKWWEMKREIVGVVEPLPHDETYCDPAALFHVSNDYSFIRYYTRTIYQFQFQEALCQAAKHDGPLHKCDISNSTEAGQKLLNMLRLGKSEPWTLALENVVGARNMDVRPLLNYFEPLSVWLKEQNKNSFVGWNTDWSPYADQSIKVRISLKSALGENAYEWDDNEMYLFRASVAYAMRVYFAKNKTQTVPFGVEDIRVSDLKPRVSFNFFVTSPQNVSDIIPRNEVEEAVRLSRGRINDVFGLDDNSLEFLGINPTLSPPYQPPVT
B2: sheep ACE2 ectodomain fused with mFc (Fc fusion)
chain: QSTTEGQAKTFLEKFNHEAEDLSYQSSLASWNYNTNITDENVQKMNEARAKWSAFYEEQSRMARTYSLEEIQNLTLKRQLKALQHSGTSVLSAEKSKRLNTILNKMSTIYSTGKVLDPNTQECLALEPGLDDIMENSRDYNRRLWAWEGWRAEVGKQLRPLYEEYVVLENEMARANNYEDYGDYWRGDYEVTGAGDYDYSRDQLMKDVERTFEEIKPLYEQLHAYVRAKLMDTYPSYISPTGCLPAHLLGDMWGRFWTNLYSLTVPFEHKPSIDVTEKMKNQSWDAERIFKEAEKFFVSIGLPYMTQGFWDNSMLTEPGDGRKVVCHPTAWDLGKGDFRIKMCTKVTMDDFLTAHHEMGHIQYDMAYATQPYLLRNGANEGFHEAVGEIMSLSAATPHYLKALGLLAPDFYEDNETEINFLLKQALTIVGTLPFTYMLEKWRWMVFKGEIPKQQWMEKWWEMKREIVGVVEPLPHDETYCDPACLFHVAEDYSFIRYYTRTIYQFQFHEALCKTAKHEGALFKCDISNSTEAGQRLLQMLRLGKSEPWTLALENIVGIKTMDVKPLLNYFEPLFTWLKEQNRNSFVGWSTEWTPYSDQSIKVRISLKSALGENAYEWNDNEMYLFRSSVAYAMRKYFLKERNETIPFGEENVWVSDKKPRISFKFFVTSPNNVSDIIPRTEVENAIRLCRDRINDAFQLDDNSLEFLGIQPTLRPPYEPP
B3: wild Bactrian camel ACE2 ectodomain fused with mFc (Fc fusion)
chain: QSTTEELAKTFLEEFNHEAEDLSYQSSLASWNYNTNITDENVQKMNDARAKWSTFYEEKSKTAKTYPLEEIQNVTLKRQLQALQQSGASALSADKSKRLTTVLSTMSTIYSSGEVCDPNNPQECLVLEPGLDDIMENSKDYNQRLWAWEGWRAEVGKQLRPLYEEYVVLKNEMARANNYEDYGDYWRGDYEVMWAGDYDYSRDQLMGDVEHTFAEIKPLYEHLHAYVRAKLMDVYPSHISPTGCLPAHLLGDMWGRFWTNLYSLTVPFGQKPNIDVTEAMENQSWDAKRIFKEAEKFFVSIGLPNMTQGFWDNSMLTEPGDGRKVVCHPTAWDLGKGDFRIKMCTKVTMDDFLTAHHEMGHIQYDMAYAIQPFLLRNGANEGFHEAVGEIMSLSAATPHYLKALGLLPADFYEDSETEINFLLKQALTIVGTLPFTYMLEKWRWMVFKGEIPKEQWMQKWWEMKREIVGVVEPLPHDETYCDPACLFHVAEDYSFIRYYTRTIYQFQFHEALCQIAKHEGPLYKCDISNSTEAGQKLLQMLSLGKSEPWTLALEGLVGVKTMDVKPLLNYFEPLLTWLKDQNRNSFVGWSTDWTPYTDQSIKVRISLKSALGDKAYEWNDNEMYLFQSSLAYAMRKYFLKVQNQTILFGVEDVWVSDLKPRISFSFFVTSPKNVSDIIPRTEVEEAIRMSRSRINDAFRLDDNSLEFLGIQPTLGPPYEPP

target: SARS-CoV-2 PT-RBD (SARS-CoV-2 prototype, UniProt P0DTC2); experiment: SPR

Binder | Kd
B1 | 71.8 nM
B2 | 171 nM
B3 | 993 nM
